Reference: patent publication US20250368754A1

Target: human LTβR on A375 cells (human) (UniProt P36941)
Assay: cell-based or functional assay

human LTβR on A375 cells (human), sequence (P36941 31-435): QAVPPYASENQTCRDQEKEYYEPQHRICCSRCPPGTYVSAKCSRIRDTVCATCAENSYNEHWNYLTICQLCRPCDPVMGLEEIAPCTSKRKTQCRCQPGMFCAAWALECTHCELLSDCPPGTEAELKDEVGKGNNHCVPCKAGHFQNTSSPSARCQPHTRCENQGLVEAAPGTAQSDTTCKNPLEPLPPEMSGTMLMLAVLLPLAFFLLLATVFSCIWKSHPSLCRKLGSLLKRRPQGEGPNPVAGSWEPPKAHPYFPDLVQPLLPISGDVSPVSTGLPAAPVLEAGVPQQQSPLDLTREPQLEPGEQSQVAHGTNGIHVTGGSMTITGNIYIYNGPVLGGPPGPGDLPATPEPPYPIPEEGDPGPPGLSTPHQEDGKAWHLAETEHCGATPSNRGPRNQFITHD

With “recombinant human LIGHT (R&D systems) (from UniProt O43557 74-240) (ligand)” the IL-8 secretion of A375 cells, EC50 (FIG. 15a) was 0.226 nM and the IL-8 secretion of A375 cells, EC50 (FIG. 15b) was 0.19 nM.
